Source: article PMC2875157 (Nature, 2010)

B1: GST-eIF5^W391F (natural protein)
chain: MSINICRDNHDPFYRYKMPPIQAKVEGRGNGIKTAVLNVADISHALNRPAPYIVKYFGFELGAQTSISVDKDRYLVNGVHEPAKLQDVLDGFINKFVLCGSCKNPETEIIITKDNDLVRDCKACGKRTPMDLRHKLSSFILKNPPDSVSGSKKKKKAATASANVRGGGLSISDIAQGKSQNAPSDGTGSSTPQHHDEDEDELSRQIKAAASTLEDIEVKDDEWAVDMSEEAIRARAKELEVNSELTQLDEYGEWILEQAGEDKENLPSDVELYKKAAELDVLNDPKIGCVLAQCLFDEDIVNEIAEHNAFFTKILVTPEYEKNFMGGIERFLGLEHKDLIPLLPKILVQLYNNDIISEEEIMRFGTKSSKKFVPKEVSKKVRRAAKPFITFLETAESDDDEEDDE
B2: GST-eIF5^LR+CTD (domain or fragment)
chain: KKKKAATASANVRGGGLSISDIAQGKSQNAPSDGTGSSTPQHHDEDEDELSRQIKAAASTLEDIEVKDDEWAVDMSEEAIRARAKELEVNSELTQLDEYGEWILEQAGEDKENLPSDVELYKKAAELDVLNDPKIGCVLAQCLFDEDIVNEIAEHNAFFTKILVTPEYEKNFMGGIERFLGLEHKDLIPLLPKILVQLYNNDIISEEEIMRFGTKSSKKFVPKEVSKKVRRAAKPFITWLETAESDDDEEDDE
B3: GST-eIF5^CTD (domain or fragment)
chain: VNSELTQLDEYGEWILEQAGEDKENLPSDVELYKKAAELDVLNDPKIGCVLAQCLFDEDIVNEIAEHNAFFTKILVTPEYEKNFMGGIERFLGLEHKDLIPLLPKILVQLYNNDIISEEEIMRFGTKSSKKFVPKEVSKKVRRAAKPFITWLETAESDDDEEDDE

Molecular target: Yeast eIF2αβγ complex, purified (his-tagged eIF2γ) (yeast, UniProt P20459;P09064;P32481)
Experiment: pull-down

Yeast eIF2αβγ complex, purified (his-tagged eIF2γ), sequence (P20459 whole entry, chain 1 of 3): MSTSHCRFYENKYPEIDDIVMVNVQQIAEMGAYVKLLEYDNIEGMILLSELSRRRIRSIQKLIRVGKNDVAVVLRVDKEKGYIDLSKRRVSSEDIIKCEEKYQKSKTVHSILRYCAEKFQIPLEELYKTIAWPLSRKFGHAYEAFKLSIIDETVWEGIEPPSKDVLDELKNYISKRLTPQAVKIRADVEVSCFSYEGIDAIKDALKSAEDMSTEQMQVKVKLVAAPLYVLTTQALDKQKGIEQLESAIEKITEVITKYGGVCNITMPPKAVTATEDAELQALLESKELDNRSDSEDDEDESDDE
Yeast eIF2αβγ complex, purified (his-tagged eIF2γ), sequence (P09064 whole entry, chain 2 of 3): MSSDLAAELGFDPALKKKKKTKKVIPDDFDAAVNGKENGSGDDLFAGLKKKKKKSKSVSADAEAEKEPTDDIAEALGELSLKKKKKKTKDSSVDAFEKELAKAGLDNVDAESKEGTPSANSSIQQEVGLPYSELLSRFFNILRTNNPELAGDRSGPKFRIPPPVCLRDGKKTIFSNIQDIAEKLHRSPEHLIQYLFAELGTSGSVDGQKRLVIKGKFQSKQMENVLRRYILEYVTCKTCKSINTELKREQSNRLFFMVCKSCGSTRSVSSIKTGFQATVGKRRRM
Yeast eIF2αβγ complex, purified (his-tagged eIF2γ), sequence (P32481 whole entry, chain 3 of 3): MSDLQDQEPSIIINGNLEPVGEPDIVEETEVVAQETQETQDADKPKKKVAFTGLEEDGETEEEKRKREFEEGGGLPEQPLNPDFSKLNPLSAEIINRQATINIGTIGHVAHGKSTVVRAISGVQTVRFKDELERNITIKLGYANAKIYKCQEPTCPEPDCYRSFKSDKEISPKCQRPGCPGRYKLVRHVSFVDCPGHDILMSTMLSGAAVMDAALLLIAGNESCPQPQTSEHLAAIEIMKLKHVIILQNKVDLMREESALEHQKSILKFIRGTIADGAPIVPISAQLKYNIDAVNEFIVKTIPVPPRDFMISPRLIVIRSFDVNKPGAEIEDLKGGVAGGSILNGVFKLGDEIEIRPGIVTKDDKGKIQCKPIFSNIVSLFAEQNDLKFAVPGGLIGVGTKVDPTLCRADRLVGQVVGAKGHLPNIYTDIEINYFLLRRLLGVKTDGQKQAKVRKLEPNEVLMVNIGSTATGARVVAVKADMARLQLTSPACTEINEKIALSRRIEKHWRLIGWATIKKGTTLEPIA

| binding result | Binder |
| --- | --- |
| binds | B1 |
| binds | B2 |
| binds | B3 |
